B1: 5E11-TCB (bispecific antibody, human IgG1, kappa, L234A L235A)
light 1: DIVLTQSPALAVSPGQRATISCRASQSVSISGINLMNWYQQKPGQQPKLLIYHASILASGIPTRFSGSGSGTDFTLTIDPVQADDIATYYCQQTRESPLTFGSGTNLEIKRTVAAPSVFIFPPSDRKLKSGTASVVCLLNNFYPREAKVQWKVDNALQSGNSQESVTEQDSKDSTYSLSSTLTLSKADYEKHKVYACEVTHQGLSSPVTKSFNRGEC
light 2: EVQLLESGGGLVQPGGSLRLSCAASGFTFSTYAMNWVRQAPGKGLEWVSRIRSKYNNYATYYADSVKGRFTISRDDSKNTLYLQMNSLRAEDTAVYYCVRHGNFGNSYVSWFAYWGQGTLVTVSSASVAAPSVFIFPPSDEQLKSGTASVVCLLNNFYPREAKVQWKVDNALQSGNSQESVTEQDSKDSTYSLSSTLTLSKADYEKHKVYACEVTHQGLSSPVTKSFNRGEC
heavy 1: ELQLEQSGGGLVQPGGSLTLSCAASGFTFSKYAMAWVRQAPTKGLEWVASISTGGVNTYYRDSVKARFTISRDNAKNTQYLQMDSLRSEDTATYYCATHTGDYFDYWGQGVMVTVSSASTKGPSVFPLAPSSKSTSGGTAALGCLVEDYFPEPVTVSWNSGALTSGVHTFPAVLQSSGLYSLSSVVTVPSSSLGTQTYICNVNHKPSNTKVDEKVEPKSCDKTHTCPPCPAPEAAGGPSVFLFPPKPKDTLMISRTPEVTCVVVDVSHEDPEVKFNWYVDGVEVHNAKTKPREEQYNSTYRVVSVLTVLHQDWLNGKEYKCKVSNKALGAPIEKTISKAKGQPREPQVCTLPPSRDELTKNQVSLSCAVKGFYPSDIAVEWESNGQPENNYKTTPPVLDSDGSFFLVSKLTVDKSRWQQGNVFSCSVMHEALHNHYTQKSLSLSPGK
heavy 2: not shown
notes: 2+1 anti-GPRC5D/anti-CD3 T cell bispecific: LC1 (GPRC5D), LC2 (CD3 crossed VH-CL), HC hole, HC knob; also called 5E11p-CH2527
B2: 5E11(VH1d + VL2a)-C122-TCB (P1AE6626) (bispecific antibody, human IgG1, kappa, L234A L235A)
light 1: EIVLTQSPGTLSLSPGERATLSCRASQSVSISGINLMNWYQQKPGQQPRLLIYHASILASGIPDRFSGSGSGTDFTLTISRLEPEDFAVYYCQQTRESPLTFGQGTRLEIKRTVAAPSVFIFPPSDRKLKSGTASVVCLLNNFYPREAKVQWKVDNALQSGNSQESVTEQDSKDSTYSLSSTLTLSKADYEKHKVYACEVTHQGLSSPVTKSFNRGEC
light 2: EVQLLESGGGLVQPGGSLRLSCAASGFQFSSYAMNWVRQAPGKGLEWVSRIRSKYNNYATYYADSVKGRFTISRDDSKNTLYLQMNSLRAEDTAVYYCVRHTTFPSSYVSYYGYWGQGTLVTVSSASVAAPSVFIFPPSDEQLKSGTASVVCLLNNFYPREAKVQWKVDNALQSGNSQESVTEQDSKDSTYSLSSTLTLSKADYEKHKVYACEVTHQGLSSPVTKSFNRGEC
heavy 1: ELQLLESGGGLVQPGGSLRLSCAASGFTFSKYAMAWVRQAPGKGLEWVASISTGGVNTYYADSVKGRFTISRDNAKNTLYLQMNSLRAEDTAVYYCATHTGDYFDYWGQGTMVTVSSASTKGPSVFPLAPSSKSTSGGTAALGCLVEDYFPEPVTVSWNSGALTSGVHTFPAVLQSSGLYSLSSVVTVPSSSLGTQTYICNVNHKPSNTKVDEKVEPKSCDKTHTCPPCPAPEAAGGPSVFLFPPKPKDTLMISRTPEVTCVVVDVSHEDPEVKFNWYVDGVEVHNAKTKPREEQYNSTYRVVSVLTVLHQDWLNGKEYKCKVSNKALGAPIEKTISKAKGQPREPQVCTLPPSRDELTKNQVSLSCAVKGFYPSDIAVEWESNGQPENNYKTTPPVLDSDGSFFLVSKLTVDKSRWQQGNVFSCSVMHEALHNHYTQKSLSLSPGK
heavy 2: not shown
notes: 2+1 TCB: LC1 (anti-GPRC5D), LC2 (anti-CD3 crossed), HC1 Fc hole, HC2 Fc knob
B3: 5F11-TCB (bispecific antibody, human IgG1, kappa, L234A L235A)
light 1: DIVMTQAPLSVSVTPGESASISCRSSKSLLHSNGITYVYWYFQKPGKSPQVLIYRMSNLASGVPDRFSGSGSETDFTLKISRVEAEDVGIYHCGQLLENPYTFGAGTELELKRTVAAPSVFIFPPSDRKLKSGTASVVCLLNNFYPREAKVQWKVDNALQSGNSQESVTEQDSKDSTYSLSSTLTLSKADYEKHKVYACEVTHQGLSSPVTKSFNRGEC
light 2: EVQLLESGGGLVQPGGSLRLSCAASGFTFSTYAMNWVRQAPGKGLEWVSRIRSKYNNYATYYADSVKGRFTISRDDSKNTLYLQMNSLRAEDTAVYYCVRHGNFGNSYVSWFAYWGQGTLVTVSSASVAAPSVFIFPPSDEQLKSGTASVVCLLNNFYPREAKVQWKVDNALQSGNSQESVTEQDSKDSTYSLSSTLTLSKADYEKHKVYACEVTHQGLSSPVTKSFNRGEC
heavy 1: EVQLVESGGGLVQPGRSLKLSCAASGFSFSNYGMAWVRQAATKGLEWVASISTGGGNTYYRDSVKGRFIVSRDNAKNTQYLQMDSLRSEDTATYYCTRHDRGGLYWGQGVMVTVSSASTKGPSVFPLAPSSKSTSGGTAALGCLVEDYFPEPVTVSWNSGALTSGVHTFPAVLQSSGLYSLSSVVTVPSSSLGTQTYICNVNHKPSNTKVDEKVEPKSCDKTHTCPPCPAPEAAGGPSVFLFPPKPKDTLMISRTPEVTCVVVDVSHEDPEVKFNWYVDGVEVHNAKTKPREEQYNSTYRVVSVLTVLHQDWLNGKEYKCKVSNKALGAPIEKTISKAKGQPREPQVCTLPPSRDELTKNQVSLSCAVKGFYPSDIAVEWESNGQPENNYKTTPPVLDSDGSFFLVSKLTVDKSRWQQGNVFSCSVMHEALHNHYTQKSLSLSPGK
heavy 2: not shown
notes: 2+1 anti-GPRC5D/anti-CD3 T cell bispecific: LC1 (GPRC5D), LC2 (CD3 crossed VH-CL), HC hole, HC knob; also called 5F11p-CH2527
B4: 5F11(VH1b + VL2a)-C122-TCB (P1AE6623) (bispecific antibody, human IgG1, kappa, L234A L235A)
light 1: DIVMTQSPLSLPVTPGEPASISCRSSKSLLHSNGITYVYWYLQKPGQSPQLLIYRMSNRASGVPDRFSGSGSGTDFTLKISRVEAEDVGVYHCGQLLENPYTFGQGTKLEIKRTVAAPSVFIFPPSDRKLKSGTASVVCLLNNFYPREAKVQWKVDNALQSGNSQESVTEQDSKDSTYSLSSTLTLSKADYEKHKVYACEVTHQGLSSPVTKSFNRGEC
light 2: EVQLLESGGGLVQPGGSLRLSCAASGFQFSSYAMNWVRQAPGKGLEWVSRIRSKYNNYATYYADSVKGRFTISRDDSKNTLYLQMNSLRAEDTAVYYCVRHTTFPSSYVSYYGYWGQGTLVTVSSASVAAPSVFIFPPSDEQLKSGTASVVCLLNNFYPREAKVQWKVDNALQSGNSQESVTEQDSKDSTYSLSSTLTLSKADYEKHKVYACEVTHQGLSSPVTKSFNRGEC
heavy 1: EVQLVESGGGVVQPGRSLRLSCAASGFSFSNYGMAWVRQAPGKGLEWVASISTGGGNTYYRDSVKGRFTISRDNAKNTLYLQMNSLRAEDTAVYYCTRHDRGGLYWGQGTMVTVSSASTKGPSVFPLAPSSKSTSGGTAALGCLVEDYFPEPVTVSWNSGALTSGVHTFPAVLQSSGLYSLSSVVTVPSSSLGTQTYICNVNHKPSNTKVDEKVEPKSCDKTHTCPPCPAPEAAGGPSVFLFPPKPKDTLMISRTPEVTCVVVDVSHEDPEVKFNWYVDGVEVHNAKTKPREEQYNSTYRVVSVLTVLHQDWLNGKEYKCKVSNKALGAPIEKTISKAKGQPREPQVCTLPPSRDELTKNQVSLSCAVKGFYPSDIAVEWESNGQPENNYKTTPPVLDSDGSFFLVSKLTVDKSRWQQGNVFSCSVMHEALHNHYTQKSLSLSPGK
heavy 2: not shown
notes: as for B2

Key:
human GPRC5D [1] = biological target: T1, human GPRC5D (human, UniProt Q9NZD1 1-345); assay: cell-based or functional assay
T1 sequence (Q9NZD1 whole entry): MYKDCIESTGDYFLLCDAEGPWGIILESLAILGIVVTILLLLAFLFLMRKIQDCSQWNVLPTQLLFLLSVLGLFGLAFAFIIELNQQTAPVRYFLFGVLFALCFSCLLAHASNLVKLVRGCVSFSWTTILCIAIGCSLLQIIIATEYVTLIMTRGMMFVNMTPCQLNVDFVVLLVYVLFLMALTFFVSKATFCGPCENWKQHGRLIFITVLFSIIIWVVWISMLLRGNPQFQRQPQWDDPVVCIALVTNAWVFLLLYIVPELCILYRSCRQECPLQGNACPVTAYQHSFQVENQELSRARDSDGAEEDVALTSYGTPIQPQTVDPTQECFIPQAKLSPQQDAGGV

human CD3 = biological target: T2, human CD3 (human, UniProt P07766 23-207); assay: flow cytometry on Jurkat-NFAT cells; paragraph 550 says these values were falsely calculated by a factor of 10 (too low)
T2 construct: Expressed on Jurkat-NFAT reporter cells as part of the TCR/CD3 complex; also called hCD3; CD3 epsilon
T2 sequence (P07766 23-207 limits assumed): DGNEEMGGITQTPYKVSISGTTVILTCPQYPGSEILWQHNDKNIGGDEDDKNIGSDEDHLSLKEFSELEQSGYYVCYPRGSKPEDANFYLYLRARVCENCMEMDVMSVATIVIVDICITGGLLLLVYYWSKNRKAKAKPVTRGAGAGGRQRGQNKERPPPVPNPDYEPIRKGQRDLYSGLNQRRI
Experimental: (§1) To measure the binding to GPRC5D, we performed a flow cytometry-based binding assay on reported multiple myeloma cell lines (Lombardi et al., Molecular characterization of human multiple myeloma cell lines by integrative genomics: insights into the biology of the disease; Genes Chromosomes Cancer. 2007 March; 46(3):226-38). The cell line NCI-H929 (ATCC® CRL-9068) was cultured in RPMI 1640 with Glutamax medium (Gibco) supplemented with 10% FBS, 1× Penicillin/Streptomycin (Gibco), 1× Sodium Pyruvate (Gibco) and 50 μM beta-Mercaptoethanol (Gibco). Jurkat-NFAT reporter cells (a CD3-expressing human acute lymphatic leukemia reporter cell line with a NFAT promoter, GloResponse Jurkat NFAT-RE-luc2P, Promega #CS176501) were cultured in RPMI 1640, containing 2 g/l Glucose, 2 g/l NaHCO₃, 10% FCS, 25 mM HEPES, 2 mM L-Glutamine, 1×NEAA, 1× Sodium-pyruvate and 200 μg/ml Hygromycin B.
(§2) Flow cytometry acquisition was performed on a custom-designed BD Biosciences Fortessa and analyzed using BD Diva. EC50 values were calculated, using GraphPad Prism software.

human GPRC5D [2] = biological target: T1, human GPRC5D; assay: cell-based or functional assay; remark: listed apart in the source
human GPRC5D [3] = biological target: T1, human GPRC5D; assay: flow cytometry on NCI-H929 cells; paragraph 550 says these values were falsely calculated by a factor of 10 (too low)
Experimental: as §1, §2

human GPRC5D [4] = biological target: T1, human GPRC5D; assay: cell-based or functional assay; remark: listed apart in the source

Binder | AUC, activation of Jurkat-NFAT reporter cells in presence of RPMI-8226 cells (human GPRC5D [1]) | EC50 (pM), activation of Jurkat-NFAT reporter cells in presence of RPMI-8226 cells (human GPRC5D [1]) | EC50 (human CD3) | EC50 of anti-GPRC5D-TCB mediated killing, AMO-1 (human GPRC5D [2]) | EC50 of anti-GPRC5D-TCB mediated killing, L363 (human GPRC5D [2]) | EC50 of anti-GPRC5D-TCB mediated killing, NCI-H929 (human GPRC5D [2]) | EC50 of anti-GPRC5D-TCB mediated killing, RPMI-8226 (human GPRC5D [2]) | EC50 (human GPRC5D [3]) | EC50 in vitro killing assay, AMO-1 (human GPRC5D [4]) | EC50 in vitro killing assay, EJM (human GPRC5D [4]) | EC50 in vitro killing assay, L363 (human GPRC5D [4]) | EC50 in vitro killing assay, MOLP-2 (human GPRC5D [4]) | EC50 in vitro killing assay, NCI-H929 (human GPRC5D [4]) | EC50 in vitro killing assay, OPM-2 (human GPRC5D [4]) | EC50 in vitro killing assay, RPMI (human GPRC5D [4])
B1 | 265000 | 157 pM | 3670 pM | 14 pM | 12 pM | 7 pM | 24 pM | 3360 pM | 8 pM | 11 pM | 17 pM | 18 pM | 7 pM | 2 pM | 64 pM
B2 | 582000 | 49.7 pM | 7800 pM |  |  |  |  | 850 pM |  |  |  |  |  |  | 
B3 | 393000 | 14 pM | 2310 pM | 3 pM | 1 pM | 1 pM | 2 pM | 180 pM | 6 pM | 3 pM | 3 pM | 1 pM | 4 pM | 1 pM | 6 pM
B4 | 778000 | 8.9 pM |  |  |  |  |  | 360 pM |  |  |  |  |  |  | 
